Laboratory results from the Human Domainome abundance scans (Beltran et al. 2025).
± gives the uncertainty stated by the source.

B1: POU domain, class 2, transcription factor 3, residues 186 to 260; numbered along this chain, Q9UKI9 (parent)
chain: SDLEELEKFAKTFKQRRIKLGFTQGDVGLAMGKLYGNDFSQTTISRFEALNLSFKNMCKLKPLLEKWLNDAESSP

Variants of: B1
Experiment: abundance fitness (aPCA) (normalised: wild type 0, dead -1); higher = more abundant; growth selection in yeast, the domain comes from the species named
Details: Homo sapiens

Variant | abundance fitness
SNLEELEKFAKTFKQRRIKLGFTQGDVGLAMGKLYGNDFSQTTISRFEALNLSFKNMCKLKPLLEKWLNDAESSP [D2N] | -0.107 ± 0.21
SGLEELEKFAKTFKQRRIKLGFTQGDVGLAMGKLYGNDFSQTTISRFEALNLSFKNMCKLKPLLEKWLNDAESSP [D2G] | -0.01 ± 0.41
SDLEELEKFAKTFKQRRSKLGFTQGDVGLAMGKLYGNDFSQTTISRFEALNLSFKNMCKLKPLLEKWLNDAESSP [I18S] | -0.072 ± 0.029
SDLEELEKFAKTFKQRRAKLGFTQGDVGLAMGKLYGNDFSQTTISRFEALNLSFKNMCKLKPLLEKWLNDAESSP [I18A] | -0.056 ± 0.031
SDLEELEKFAKTFKQRRTKLGFTQGDVGLAMGKLYGNDFSQTTISRFEALNLSFKNMCKLKPLLEKWLNDAESSP [I18T] | -0.041 ± 0.036
SDLEELEKFAKTFKQRRFKLGFTQGDVGLAMGKLYGNDFSQTTISRFEALNLSFKNMCKLKPLLEKWLNDAESSP [I18F] | -0.266 ± 0.076
SDLEELEKFAKTFKQRRMKLGFTQGDVGLAMGKLYGNDFSQTTISRFEALNLSFKNMCKLKPLLEKWLNDAESSP [I18M] | 0.004 ± 0.034
SDLEELEKFAKTFKQRRHKLGFTQGDVGLAMGKLYGNDFSQTTISRFEALNLSFKNMCKLKPLLEKWLNDAESSP [I18H] | -0.133 ± 0.072
SDLEELEKFAKTFKQRRCKLGFTQGDVGLAMGKLYGNDFSQTTISRFEALNLSFKNMCKLKPLLEKWLNDAESSP [I18C] | -0.143 ± 0.046
SDLEELEKFAKTFKQRRWKLGFTQGDVGLAMGKLYGNDFSQTTISRFEALNLSFKNMCKLKPLLEKWLNDAESSP [I18W] | -0.31 ± 0.038
SDLEELEKFAKTFKQRREKLGFTQGDVGLAMGKLYGNDFSQTTISRFEALNLSFKNMCKLKPLLEKWLNDAESSP [I18E] | 0.064 ± 0.031
SDLEELEKFAKTFKQRRRKLGFTQGDVGLAMGKLYGNDFSQTTISRFEALNLSFKNMCKLKPLLEKWLNDAESSP [I18R] | -0.057 ± 0.025
SDLEELEKFAKTFKQRRYKLGFTQGDVGLAMGKLYGNDFSQTTISRFEALNLSFKNMCKLKPLLEKWLNDAESSP [I18Y] | -0.166 ± 0.054
SDLEELEKFAKTFKQRRKKLGFTQGDVGLAMGKLYGNDFSQTTISRFEALNLSFKNMCKLKPLLEKWLNDAESSP [I18K] | -0.028 ± 0.042
SDLEELEKFAKTFKQRRPKLGFTQGDVGLAMGKLYGNDFSQTTISRFEALNLSFKNMCKLKPLLEKWLNDAESSP [I18P] | -0.964 ± 0.1
SDLEELEKFAKTFKQRRNKLGFTQGDVGLAMGKLYGNDFSQTTISRFEALNLSFKNMCKLKPLLEKWLNDAESSP [I18N] | -0.146 ± 0.056
SDLEELEKFAKTFKQRRDKLGFTQGDVGLAMGKLYGNDFSQTTISRFEALNLSFKNMCKLKPLLEKWLNDAESSP [I18D] | -0.063 ± 0.048
SDLEELEKFAKTFKQRRVKLGFTQGDVGLAMGKLYGNDFSQTTISRFEALNLSFKNMCKLKPLLEKWLNDAESSP [I18V] | -0.023 ± 0.027
SDLEELEKFAKTFKQRRQKLGFTQGDVGLAMGKLYGNDFSQTTISRFEALNLSFKNMCKLKPLLEKWLNDAESSP [I18Q] | 0.086 ± 0.038
SDLEELEKFAKTFKQRRLKLGFTQGDVGLAMGKLYGNDFSQTTISRFEALNLSFKNMCKLKPLLEKWLNDAESSP [I18L] | -0.025 ± 0.028
SDLEEFEKFAKTFKQRRIKLGFTQGDVGLAMGKLYGNDFSQTTISRFEALNLSFKNMCKLKPLLEKWLNDAESSP [L6F] | -0.229 ± 0.32
SDLEESEKFAKTFKQRRIKLGFTQGDVGLAMGKLYGNDFSQTTISRFEALNLSFKNMCKLKPLLEKWLNDAESSP [L6S] | -0.16 ± 0.39
SDLEELEKFAKTFKQRRIDLGFTQGDVGLAMGKLYGNDFSQTTISRFEALNLSFKNMCKLKPLLEKWLNDAESSP [K19D] | 0.131 ± 0.22
SDLEELEKFAKTFKQRRIALGFTQGDVGLAMGKLYGNDFSQTTISRFEALNLSFKNMCKLKPLLEKWLNDAESSP [K19A] | -0.321 ± 0.47
SDLEELEKFAKTFKQRRISLGFTQGDVGLAMGKLYGNDFSQTTISRFEALNLSFKNMCKLKPLLEKWLNDAESSP [K19S] | 0.11 ± 0.41

Variant | abundance fitness
SDLEELEKFAKTFKQRRILLGFTQGDVGLAMGKLYGNDFSQTTISRFEALNLSFKNMCKLKPLLEKWLNDAESSP [K19L] | 0.228 ± 0.41
SDLEELEKFAKTFKQRRIKLQFTQGDVGLAMGKLYGNDFSQTTISRFEALNLSFKNMCKLKPLLEKWLNDAESSP [G21Q] | -0.493 ± 0.39
SDLEELEKFAKTFKQRRIKLDFTQGDVGLAMGKLYGNDFSQTTISRFEALNLSFKNMCKLKPLLEKWLNDAESSP [G21D] | -0.373 ± 0.2
SDLEELEKFAKTFKQRRIKLSFTQGDVGLAMGKLYGNDFSQTTISRFEALNLSFKNMCKLKPLLEKWLNDAESSP [G21S] | -0.504 ± 0.28
SDLEELEKFAKTFKQRRIKLVFTQGDVGLAMGKLYGNDFSQTTISRFEALNLSFKNMCKLKPLLEKWLNDAESSP [G21V] | -0.683 ± 0.44
SDLEELEKFAKQFKQRRIKLGFTQGDVGLAMGKLYGNDFSQTTISRFEALNLSFKNMCKLKPLLEKWLNDAESSP [T12Q] | 0.01 ± 0.13
SDLEELEKFAKRFKQRRIKLGFTQGDVGLAMGKLYGNDFSQTTISRFEALNLSFKNMCKLKPLLEKWLNDAESSP [T12R] | -0.018 ± 0.11
SDLEELEKFAKNFKQRRIKLGFTQGDVGLAMGKLYGNDFSQTTISRFEALNLSFKNMCKLKPLLEKWLNDAESSP [T12N] | 0.063 ± 0.13
SDLEELEKFAKTFKQRRIKLGFTQDDVGLAMGKLYGNDFSQTTISRFEALNLSFKNMCKLKPLLEKWLNDAESSP [G25D] | -0.436 ± 0.28
SDLEELEKFAKTFKQRRIKLGFTQVDVGLAMGKLYGNDFSQTTISRFEALNLSFKNMCKLKPLLEKWLNDAESSP [G25V] | -0.161 ± 0.27
SDLEELEKFAKTFKQRRIKLGFTQCDVGLAMGKLYGNDFSQTTISRFEALNLSFKNMCKLKPLLEKWLNDAESSP [G25C] | 0.105 ± 0.3
SDLEELEKFAKTFKQRRIKLGFTSGDVGLAMGKLYGNDFSQTTISRFEALNLSFKNMCKLKPLLEKWLNDAESSP [Q24S] | -0.071 ± 0.26
SDLEELEKFAKTFKQRRIKLGFTAGDVGLAMGKLYGNDFSQTTISRFEALNLSFKNMCKLKPLLEKWLNDAESSP [Q24A] | -0.451 ± 0.44
SDLEELEKFAKTFKQRRIKLGFTCGDVGLAMGKLYGNDFSQTTISRFEALNLSFKNMCKLKPLLEKWLNDAESSP [Q24C] | -0.155 ± 0.19
SDLEELEKFAKTFKQRRIKLGFTWGDVGLAMGKLYGNDFSQTTISRFEALNLSFKNMCKLKPLLEKWLNDAESSP [Q24W] | -0.591 ± 0.48
SDLEELEKFAKTFKQRRIKKGFTQGDVGLAMGKLYGNDFSQTTISRFEALNLSFKNMCKLKPLLEKWLNDAESSP [L20K] | -0.591 ± 0.48
SDLEELEKFAKTFKQRRIKLGATQGDVGLAMGKLYGNDFSQTTISRFEALNLSFKNMCKLKPLLEKWLNDAESSP [F22A] | 0.146 ± 0.15
SDLEELEKFAKTFKQRRIKLGLTQGDVGLAMGKLYGNDFSQTTISRFEALNLSFKNMCKLKPLLEKWLNDAESSP [F22L] | 0.065 ± 0.17
SDLEELEKFAKTFKQRRIKLGSTQGDVGLAMGKLYGNDFSQTTISRFEALNLSFKNMCKLKPLLEKWLNDAESSP [F22S] | -0.282 ± 0.31
SDLEELEKFAKTFKQRRIKLGETQGDVGLAMGKLYGNDFSQTTISRFEALNLSFKNMCKLKPLLEKWLNDAESSP [F22E] | -0.412 ± 0.39
SDLEELEKFAKTFKQRRIKLGRTQGDVGLAMGKLYGNDFSQTTISRFEALNLSFKNMCKLKPLLEKWLNDAESSP [F22R] | -0.274 ± 0.25
SDLEELEKFAKTFAQRRIKLGFTQGDVGLAMGKLYGNDFSQTTISRFEALNLSFKNMCKLKPLLEKWLNDAESSP [K14A] | -0.309 ± 0.32
SDFEELEKFAKTFKQRRIKLGFTQGDVGLAMGKLYGNDFSQTTISRFEALNLSFKNMCKLKPLLEKWLNDAESSP [L3F] | -0.055 ± 0.32
SDLEELEKFGKTFKQRRIKLGFTQGDVGLAMGKLYGNDFSQTTISRFEALNLSFKNMCKLKPLLEKWLNDAESSP [A10G] | -0.064 ± 0.16
SDLEELEKFAKTFKARRIKLGFTQGDVGLAMGKLYGNDFSQTTISRFEALNLSFKNMCKLKPLLEKWLNDAESSP [Q15A] | 0.474 ± 0.32

Variant | abundance fitness
SDLEELEKSAKTFKQRRIKLGFTQGDVGLAMGKLYGNDFSQTTISRFEALNLSFKNMCKLKPLLEKWLNDAESSP [F9S] | -0.153 ± 0.29
SDLEELEKVAKTFKQRRIKLGFTQGDVGLAMGKLYGNDFSQTTISRFEALNLSFKNMCKLKPLLEKWLNDAESSP [F9V] | -0.441 ± 0.2
SDLEELEKGAKTFKQRRIKLGFTQGDVGLAMGKLYGNDFSQTTISRFEALNLSFKNMCKLKPLLEKWLNDAESSP [F9G] | -0.387 ± 0.28
SDLEELEKLAKTFKQRRIKLGFTQGDVGLAMGKLYGNDFSQTTISRFEALNLSFKNMCKLKPLLEKWLNDAESSP [F9L] | -0.514 ± 0.44
SDLEELEGFAKTFKQRRIKLGFTQGDVGLAMGKLYGNDFSQTTISRFEALNLSFKNMCKLKPLLEKWLNDAESSP [K8G] | -0.115 ± 0.1
SDLEWLEKFAKTFKQRRIKLGFTQGDVGLAMGKLYGNDFSQTTISRFEALNLSFKNMCKLKPLLEKWLNDAESSP [E5W] | -0.137 ± 0.033
SDLERLEKFAKTFKQRRIKLGFTQGDVGLAMGKLYGNDFSQTTISRFEALNLSFKNMCKLKPLLEKWLNDAESSP [E5R] | -0.003 ± 0.026
SDLEQLEKFAKTFKQRRIKLGFTQGDVGLAMGKLYGNDFSQTTISRFEALNLSFKNMCKLKPLLEKWLNDAESSP [E5Q] | 0.003 ± 0.04
SDLECLEKFAKTFKQRRIKLGFTQGDVGLAMGKLYGNDFSQTTISRFEALNLSFKNMCKLKPLLEKWLNDAESSP [E5C] | -0.005 ± 0.036
SDLEYLEKFAKTFKQRRIKLGFTQGDVGLAMGKLYGNDFSQTTISRFEALNLSFKNMCKLKPLLEKWLNDAESSP [E5Y] | -0.269 ± 0.051
SDLETLEKFAKTFKQRRIKLGFTQGDVGLAMGKLYGNDFSQTTISRFEALNLSFKNMCKLKPLLEKWLNDAESSP [E5T] | 0.013 ± 0.031
SDLEMLEKFAKTFKQRRIKLGFTQGDVGLAMGKLYGNDFSQTTISRFEALNLSFKNMCKLKPLLEKWLNDAESSP [E5M] | 0.016 ± 0.036
SDLEFLEKFAKTFKQRRIKLGFTQGDVGLAMGKLYGNDFSQTTISRFEALNLSFKNMCKLKPLLEKWLNDAESSP [E5F] | -0.102 ± 0.044
SDLEHLEKFAKTFKQRRIKLGFTQGDVGLAMGKLYGNDFSQTTISRFEALNLSFKNMCKLKPLLEKWLNDAESSP [E5H] | 0.029 ± 0.049
SDLEGLEKFAKTFKQRRIKLGFTQGDVGLAMGKLYGNDFSQTTISRFEALNLSFKNMCKLKPLLEKWLNDAESSP [E5G] | -0.045 ± 0.027
SDLESLEKFAKTFKQRRIKLGFTQGDVGLAMGKLYGNDFSQTTISRFEALNLSFKNMCKLKPLLEKWLNDAESSP [E5S] | 0.031 ± 0.03
SDLEILEKFAKTFKQRRIKLGFTQGDVGLAMGKLYGNDFSQTTISRFEALNLSFKNMCKLKPLLEKWLNDAESSP [E5I] | -0.022 ± 0.061
SDLENLEKFAKTFKQRRIKLGFTQGDVGLAMGKLYGNDFSQTTISRFEALNLSFKNMCKLKPLLEKWLNDAESSP [E5N] | -0.031 ± 0.061
SDLEDLEKFAKTFKQRRIKLGFTQGDVGLAMGKLYGNDFSQTTISRFEALNLSFKNMCKLKPLLEKWLNDAESSP [E5D] | 0.036 ± 0.036
SDLEALEKFAKTFKQRRIKLGFTQGDVGLAMGKLYGNDFSQTTISRFEALNLSFKNMCKLKPLLEKWLNDAESSP [E5A] | 0.042 ± 0.028
SDLEELEKFAKTFKQRRIKLGFSQGDVGLAMGKLYGNDFSQTTISRFEALNLSFKNMCKLKPLLEKWLNDAESSP [T23S] | 0.026 ± 0.14
SDLEELEKFAKTFKQRRIKLGFAQGDVGLAMGKLYGNDFSQTTISRFEALNLSFKNMCKLKPLLEKWLNDAESSP [T23A] | -0.157 ± 0.47
SDLEELEKFAKTFKQGRIKLGFTQGDVGLAMGKLYGNDFSQTTISRFEALNLSFKNMCKLKPLLEKWLNDAESSP [R16G] | -0.147 ± 0.11
